Reference: the supplement of paper PMC10567573

B1: DYRK1B (parent)
chain: RFQDLVLRMLEYEPAARISPLGAL

Variants of: B1
Assay: protein stability index of a GFP-peptide fusion (GPS, HEK-293T) (PSI 1-6); higher = more stable
Conditions: c terminus: a fixed tail appended
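Note: lentivirally expressed fusions sorted by FACS into six bins by GFP to DsRed ratio, PSI derived from sequencing read proportions per bin multiplied by bin number.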

Variant	protein stability index
RFQDLVRRMLEYEPAARISPLGAL	1.58
RFQDLVTRMLEYEPAARISPLGAL	2.3
RFQDLVYRMLEYEPAARISPLGAL	1.38
RFQDLVHRMLEYEPAARISPLGAL	1.03
RFQDLVNRMLEYEPAARISPLGAL	1.41
RFQDLVSRMLEYEPAARISPLGAL	2.05
RFQDLVQRMLEYEPAARISPLGAL	1.69
RFQDLVMRMLEYEPAARISPLGAL	2.13
RFQDLVFRMLEYEPAARISPLGAL	2.9
RFQDLVKRMLEYEPAARISPLGAL	1.51
RFQDLVERMLEYEPAARISPLGAL	1.8
RFQDLVGRMLEYEPAARISPLGAL	1.18
RFQDLVPRMLEYEPAARISPLGAL	2.25
RFQSLVLRMLEYEPAARISPLGAL	2.88
RFQVLVLRMLEYEPAARISPLGAL	3.69
RFQDLVLRRLEYEPAARISPLGAL	1.86
RFQDLVLRHLEYEPAARISPLGAL	2.78
RFQDLVLRFLEYEPAARISPLGAL	2.77
RFQDLVLRGLEYEPAARISPLGAL	1.33
RFQDLVLRSLEYEPAARISPLGAL	1.09
RFQDLVLRTLEYEPAARISPLGAL	1.83
RFQDLVLRLLEYEPAARISPLGAL	2.7
RFQDLVLRELEYEPAARISPLGAL	1.98
RFQDLVLRKLEYEPAARISPLGAL	1.53

Variant	protein stability index
RFQDLVLRDLEYEPAARISPLGAL	3.29
RFQDLVLRNLEYEPAARISPLGAL	2.33
RFQDLVLRMLEYEPAARASPLGAL	1.41
RFQDLVLRMLEYEPAARESPLGAL	2.06
RFQDLVLRMLEYEPAARTSPLGAL	1.3
RFQDLVLRMLEYEPAARHSPLGAL	1.23
RFQDLVLRMLEYEPAARQSPLGAL	2.04
RFQDLVLRMLEYEPAARDSPLGAL	1.65
RFQDLVLRMLEYEPAARNSPLGAL	1.23
RFQDLVLRMLEYEPAARMSPLGAL	2.17
RFQDLVLRMLEYEPAARSSPLGAL	2.1
RFQDLVLRMLEYEPAARFSPLGAL	2.3
RFQDLVLRMLEYEPAARGSPLGAL	1.27
RFQDLVLRMLEYEPAARRSPLGAL	1.15
RFQDLVLRMLEYEPAARLSPLGAL	2.33
RFQDLVLRMLEYEPAARPSPLGAL	1.98
RFQDLVLRMLEYELAARISPLGAL	5.01
RFQDLVLRMLEYEIAARISPLGAL	1.72
RFQDLVLRMLEYENAARISPLGAL	1.45
RFQDLVLRMLEYEEAARISPLGAL	2.21
RFQDLVLRMLEYEFAARISPLGAL	2.87
RFQDLTLRMLEYEPAARISPLGAL	2.07
RFQDLGLRMLEYEPAARISPLGAL	1.88
RFQDLSLRMLEYEPAARISPLGAL	1.91

Variant	protein stability index
RFQDLALRMLEYEPAARISPLGAL	2.26
RFQDLPLRMLEYEPAARISPLGAL	2.58
RFQDLKLRMLEYEPAARISPLGAL	1.51
RFQDLHLRMLEYEPAARISPLGAL	2.01
RFQDLLLRMLEYEPAARISPLGAL	1.77
RFQDLILRMLEYEPAARISPLGAL	2.23
RFQDLQLRMLEYEPAARISPLGAL	2.12
RFQDLWLRMLEYEPAARISPLGAL	1.03
RFQDLNLRMLEYEPAARISPLGAL	2.78
RFQDLYLRMLEYEPAARISPLGAL	2.18
RFQDLDLRMLEYEPAARISPLGAL	2.24
RFQDLRLRMLEYEPAARISPLGAL	2
RFQDLVLEMLEYEPAARISPLGAL	2.06
RFQDLVLHMLEYEPAARISPLGAL	1.85
RFQDLVLLMLEYEPAARISPLGAL	1.89
RFQDLVLPMLEYEPAARISPLGAL	2.23
RFQDLVLIMLEYEPAARISPLGAL	2.21
RFQDLVLGMLEYEPAARISPLGAL	1.33
RFQDLVLDMLEYEPAARISPLGAL	1.31
RFQDLVLCMLEYEPAARISPLGAL	2.22
RFQDLVLMMLEYEPAARISPLGAL	3.14
RFQDLVLAMLEYEPAARISPLGAL	4.01
RFQDLVLRMLEYEPACRISPLGAL	3.04
RFQDLVLRMLEYEPAMRISPLGAL	1.85

Variant	protein stability index
RFQDLVLRMLEYEPANRISPLGAL	3.65
RFQDLVLRMLEYEPAKRISPLGAL	2.35
RFQDLVLRMLEYEPAERISPLGAL	1.36
RFQDLVLRMLEYEPAPRISPLGAL	1.44
RFQDLVLRMLEYEPATRISPLGAL	2.28
RFQDLVLRMLEYEPAFRISPLGAL	1.02
RFQDLVLRMLEYEPMARISPLGAL	2.57
RFQDLVLRMLEYEPHARISPLGAL	5.14
RFQDLVLRMLEYEPQARISPLGAL	2.04
RFQDLVLRMLEYEPPARISPLGAL	2.8
RFQDLVLRMLEYEPFARISPLGAL	1.95
RFQDLVLRMLEYEPKARISPLGAL	3.43
RFQDLVLRMLEYEPWARISPLGAL	5.07
RFQDLVLRMLEYEPRARISPLGAL	3.6
RFQDLVLRMLEYEPYARISPLGAL	2.03
RFQDLVLRMLEQEPAARISPLGAL	1.44
RFQDLVLRMLEPEPAARISPLGAL	2
RFQDLVLRMLEVEPAARISPLGAL	3.06
RFQDLVLRMLEMEPAARISPLGAL	2.22
RFQDLVLRMLESEPAARISPLGAL	2.61
RFQDLVLRMLETEPAARISPLGAL	1.04
RFQDLVLRMLENEPAARISPLGAL	1.65
